From paper PMC9092470, “Understanding p300-transcription factor interactions using sequence variation and hybridization†” (RSC Chemical Biology, 2022)
No end group written: not given here.

How the values were obtained:
[1] = target: T1, p300 (CH1 domain, residues 330–420) (Homo sapiens, UniProt Q09472); assay: ITC of chemically synthesized HIF-1α, CITED2 and CITIF peptides binding to p300; details: pH 7.5
T1 construct: GST (N, cleaved yes); made in house; host or cells: E. coli BL21 pLysS (pGEX-4T1-p300)
T1 sequence (Q09472 330-420): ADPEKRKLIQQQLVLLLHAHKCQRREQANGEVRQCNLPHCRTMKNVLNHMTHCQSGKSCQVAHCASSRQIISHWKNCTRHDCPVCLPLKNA
Description: Raw ITC (upper) data and fitted thermogram (lower) (40 mM sodium phosphate, pH 7.5 100 mM NaCl, 1 mM DTT buffer using 5 μM protein in the cell and 60 μM ligand in the syringe at 35 °C) error bars represent the estimated integration errors; (b) Thermodynamic signatures for each interaction.
Figure S8 (a) Sequences of the truncated CITED2 peptides and isothermal titration […]
µM peptide in the syringe. All measurements were carried out 40 mM sodium phosphate, pH 7.5 100 mM NaCl, 1 mM DTT buffer at 35°C. Error bars represent the estimated integration […]
Table S2 Thermodynamic parameters for shortened CITED2 sequences. 68% confidence intervals for the fitting are shown in brackets. Data fitted to a single binding site model, fixed 1:1 stoichiometry with incompetent protein fraction as an adjustable parameter. […]
(§1) Isothermal titration calorimetry
(§2) Prior to ITC measurement p300 CH1 was dialysed or run on S75 column in the buffer used for titration, and the same buffer was used to dissolve the pure peptides. Experiments with […]
(§3) MicroCal iTC200 instrument with 10 µM protein in the cell and 100 µM ligand in the syringe at 37°C, using 2 µl injections and 120 or 180 s spacing between injections. Experiments with the […]
(§4) instrument using 3-5 µM protein in the cell and 40-60 µM ligand in the syringe at 35°C, using 5 µl injections and 180 s spacing between injections, for 40 injections. Titrations were performed in 40 mM Na-phosphate, pH 7.5 100 mM NaCl, 1 mM DTT buffer except for GFP-HIF-1α and variants for which 25 mM Tris-HCl, 150 mM NaCl, 1mM DTT, pH 7.4 buffer was used. Data were analysed using NITPIC3 and fitted using SEDPHAT4 to a single binding site model (fixed 1:1 stoichiometry), with baseline and incompetent protein fraction as adjustable parameters. 68 % confidence intervals for the fitted values were determined using the automatic confidence interval search implemented in SEDPHAT. Figures were prepared using […]

[2] = target: T1, p300 (CH1 domain, residues 330–420); assay: ITC of expressed HIF-1α, CITED2 and CITIF peptides binding to p300; details: pH 7.5
Description: We hypothesized that it would be possible to enhance the affinity of HIF-1α for p300 by hybridising key regions of both CITED2 and HIF-1α (see later). We first measured the affinity of the parent peptides. A particular difficulty in comparing these peptide sequences is the different length used in different studies.[28,33,35,36] […]
data and fitted thermogram (lower) (40 mM sodium phosphate, pH 7.5 100 mM NaCl, 1 mM DTT buffer using 5 µM protein in the cell and 60 µM ligand in the syringe at 35°C); (b) Thermodynamic signatures for each interaction. […]
as §1, §2, §3, §4

[3] = target: GST-p300 (p300 CH1 domain, residues 330–420) (Homo sapiens, UniProt Q09472); assay: Fluorescence anisotropy direct titration of GFP-HIF-1α776–826 variants with GST-p300; assay type: binding; details: 50 nM GFP-HIF-1α776–826 variant, GST-p300 serial dilution, 25 mM Tris–HCl, 150 mM NaCl, 1 mM DTT, pH 7.4, 27 °C, 1:1 model, ± standard error of fitted value, technical triplicates
GST-p300 (p300 CH1 domain, residues 330–420), sequence (Q09472 330-420): as above
Source text: To experimentally compare the predictions, we carried out an in vitro biophysical study of several HIF-1α sequence variants. We assessed predicted hot residues and their interactions with p300 using the NMR structure to visualize the structural basis behind the predictions (See ESI, ^† Fig. S2). These analyses helped refine a first series of alanine variants to prepare. […] HIF-1α776–826 sequence variants were recombinantly prepared based on the predictions to test their binding to the recombinantly prepared p300 (Fig. 2). Given the length of the peptide ([…]), this was considered advantageous as it obviates the need to chemically synthesise, label and purify multiple variants. As the C-TAD domain is unstructured in isolation it was recombinantly expressed as a fusion protein with GFP. The green-fluorescent protein (GFP) tag was used for fluorescence anisotropy (FA) experiments to determine the binding affinity of HIF-1α776–826 C-TAD variants to p300. As the CH1 domain of p300 is a small domain of 11 kDa it was recombinantly expressed as a fusion protein with GST to increase its size and thus the signal to noise in the FA experiments. We established an assay where the interaction between GFP-tagged wt HIF-1α776–826 and GST-tagged p300 was monitored by FA, using the fluorescence of GFP. GST dimerises with single digit nM Kd[61] (and in our hands exists as a dimer in size exclusion chromatography analyses, see ESI, ^† Fig. S15 for protein characterization data), thus two molecules of GFP-HIF-1α could bind to the GST-p300 dimer (Fig. 2a). We make the assumption that each p300 binding site behaves independently and analyse the binding isotherm using a 1 : 1 model.
(§5) Fig. 2 Biophysical analyses on the effects of HIF-1α sequence variant p300 binding affinity. (a) schematic depicting the equilibrium for interaction of GFP-HIF-1α776–826 variants and GST-p300 as studied by fluorescence anisotropy; (b) representative fluorescence anisotropy titration data for sAV and mAV GFP-HIF-1α776–826 peptides interacting with GST-p300 (25 mM Tris–HCl, 150 mM NaCl, 1 mM DTT, pH 7.4), error bars represent standard deviation of technical triplicates; (c) raw ITC data (upper) and fitted thermogram (lower) for the interaction of GFP-HIF-1α776–826 peptides with p300 (37 °C in 25 mM Tris–HCl, 150 mM NaCl, 1 mM DTT, pH 7.4) using 10 μM p300 in the cell and 100 μM GFP-HIF-1α776–826 variant in the syringe; error bars represent estimated integration errors (d) thermodynamic signatures for each interaction. […]
7.4 buffer or dialysed into 25 mM Tris, 150 mM NaCl, 1 mM DTT pH 7.4 buffer.
GSTp300 protein was serially diluted in buffer (25 mM Tris-HCl, 150 mM NaCl, 1mM DTT, pH 7.4) and GFP-HIF-1α (50nM final concentration) was added, the plates were read after 0 min, 60 min, 4 h and 24 h, and incubated at room temperature in between. Each experiment was run in triplicate and the fluorescence anisotropy measured using an EnVision 2103 MultiLabel plate reader (Perkin Elmer) with excitation at 480 nm and emission at 535 nm (30 nm bandwidths). The recorded temperature for all measurements was 27°C ± 1°C. In parallel, a control experiment was performed in which no GFP-HIF was added and the volume made up with additional buffer, this blank was deducted from the raw data for each of the three repeats.
The intensity was calculated for each point using eqn (1) and used to calculated anisotropy […]
using eqn (2). From a plot of anisotropy against GST-p300 concentration the minimum and maximum anisotropies were obtained using a logistic sigmoidal fit in OriginPro 8.6. This allowed the conversion to fraction bound (eqn (3)). The data were then fitted using eqn (4) in OriginPro 8.6 to determine the dissociation constant, Kd. […]
5 µl injections and 180 s spacing between injections, for 40 injections. Titrations were performed in 40 mM Na-phosphate, pH 7.5 100 mM NaCl, 1 mM DTT buffer except for GFP- […]

[4] = target: T1, p300 (CH1 domain, residues 330–420); assay: ITC of GFP-HIF-1α776–826 variants binding to p300; details: 37 °C, 25 mM Tris–HCl, 150 mM NaCl, 1 mM DTT, pH 7.4, 10 μM p300 in cell, 100 μM variant in syringe; for ΔH: 68% confidence interval in brackets
Description: as §5
Error bars represent standard deviation of technical triplicates.
Figure S5 Heat of dilution of (a) GFP titrated to buffer, (b) GFP titrated to p300 and (c) Raw ITC (upper) data and fitted thermogram (lower) for the interaction of GFP-HIF-1α776-826 D823A variant (37 °C in 25 mM Tris-HCl, 150 mM NaCl, 1mM DTT, pH 7.4) using 10 µM p300 in the cell and 100 µM HIF-1α variant in the syringe. ITC experiments were carried out using a Microcal ITC200i instrument (Malvern). All proteins were dialysed against the same buffer prior to experiment, buffer or 10 µM p300 was present in the cell and titrated with 100 µM GFP-HIF-1α or GFP loaded into the syringe using 16 x 2 μL injections with 120 s spacing between the injections. Heats of GFP or GFP-HIF-1α dilution were subtracted from the measurement raw data. Error bars represent the estimated integration errors. […]
as §1, §2, §3, §4

[5] = target: T2, p300 CH1 domain (residues 330–420) (UniProt Q09472 330-420); assay: ITC; 10 μM p300 in the cell, 100 μM GFP-HIF-1α 776–826 variant in the syringe; 37 °C; 25 mM Tris–HCl, 150 mM NaCl, 1 mM DTT, pH 7.4; fixed 1:1 stoichiometry; details: both partners purified
T2 construct: p300 CH1 domain, residues 330–420; The cleavage of GST is said for the anisotropy control; also called p300 with the GST tag cleaved; source: recombinantly expressed as a fusion protein with GST, GST tag cleaved
T2 sequence (Q09472 330-420): as above

[6] = target: GST-tagged p300 CH1 domain (residues 330–420) (UniProt Q09472); assay: fluorescence polarisation; fluorescence anisotropy by the fluorescence of GFP; GFP-HIF-1α 776–826 variants with GST-p300; 25 mM Tris–HCl, 150 mM NaCl, 1 mM DTT, pH 7.4; 1:1 model, each p300 site of the GST dimer taken as independent
[7] = target: T2, p300 CH1 domain (residues 330–420); assay: ITC; peptide in the syringe, p300 in the cell (Fig. 4: 5 μM protein, 60 μM ligand); 40 mM sodium phosphate, pH 7.5, 100 mM NaCl, 1 mM DTT, 35 °C; single-site model, fixed 1:1 stoichiometry; details: both partners purified

Molecule: Ac-DEEVLMSLVIEMGLDRIKELPELWLGQNEFDFMTDF-NH2 [CITED224–259]
- ΔH, synthetic peptides [1]: -12.4 kcal/mol
- ΔS, synthetic peptides [1]: −3.6 cal mol^−1 K^−1
- ΔH, expressed peptides [2]: -12.4 kcal/mol
- ΔS, expressed peptides [2]: −6.2 cal mol^−1 K^−1

Molecule: Ac-NVIDTDFIDEEVLMSLVIEMGLDRIKELPELWLGQNEFDFMTDFVCKQQPSRVS-NH2 [CITED216–269]
- ΔH, synthetic peptides [1]: -13.2 kcal/mol
- ΔS, synthetic peptides [1]: −10.0 cal mol^−1 K^−1
- ΔH, expressed peptides [2]: -13.3 kcal/mol
- ΔS, expressed peptides [2]: −7.5 cal mol^−1 K^−1

Molecule: D823A: GFP-HIF-1α776–826 C-TAD single alanine variant D823A ({GFP}-SDLACRLLGQSMDESGLPQLTSYDCEVNAPIQGSRNLLQGEELLRALAQVN; cysteine pairing not given here)
- Kd [3]: 192 ± 17 nM
- ΔS [4]: −12.2 cal mol^−1 K^−1
- ΔH [4]: -13.0 kcal/mol

Molecule: E801A: GFP-HIF-1α776–826 C-TAD single alanine variant E801A ({GFP}-SDLACRLLGQSMDESGLPQLTSYDCAVNAPIQGSRNLLQGEELLRALDQVN; cysteine pairing not given here)
- Kd [3]: 227 ± 78 nM
- ΔS [4]: −9.5 cal mol^−1 K^−1
- ΔH [4]: -12.2 kcal/mol

Molecule: HIF-1α L792A: GFP-HIF-1α776–826 C-TAD single alanine variant L792A ({GFP}-SDLACRLLGQSMDESGAPQLTSYDCEVNAPIQGSRNLLQGEELLRALDQVN; cysteine pairing not given here)
- ΔS [4]: −14.5 ^a cal mol^−1 K^−1
- ΔH [4]: −13.6 ^a (−13.9, −13.2) kcal mol^−1

B1: GFP-tagged wt HIF-1α 776–826 C-TAD (domain or fragment, UniProt Q16665 776-826, looked up)
chain: SDLACRLLGQSMDESGLPQLTSYDCEVNAPIQGSRNLLQGEELLRALDQVN
notes: source: recombinantly expressed as a fusion protein with GFP
- Kd [5]: 86 nM
- dH [5]: -17.3 kcal/mol
- Kd [6]: 55 nM

B2: GFP-HIF-1α 776–826 L792A (domain or fragment, UniProt Q16665 776-826, looked up)
chain: SDLACRLLGQSMDESGAPQLTSYDCEVNAPIQGSRNLLQGEELLRALDQVN
notes: As m3 with the stated change; measured by ITC only; also called HIF-1α L792A; source: recombinantly expressed as a fusion protein with GFP
- Kd [5]: 386 nM
- dH [5]: -13.6 kcal/mol

B3: GFP-HIF-1α 776–826 E801A (domain or fragment, UniProt Q16665 776-826, looked up)
chain: SDLACRLLGQSMDESGLPQLTSYDCAVNAPIQGSRNLLQGEELLRALDQVN
notes: As m3 with the stated change; also called HIF-1α E801A; source: recombinantly expressed as a fusion protein with GFP
- Kd [5]: 359 nM
- dH [5]: -12.2 kcal/mol
- Kd [6]: 227 nM

B4: GFP-HIF-1α 776–826 D823A (domain or fragment, UniProt Q16665 776-826, looked up)
chain: SDLACRLLGQSMDESGLPQLTSYDCEVNAPIQGSRNLLQGEELLRALAQVN
notes: As m3 with the stated change; also called HIF-1α D823A; source: recombinantly expressed as a fusion protein with GFP
- Kd [5]: 369 nM
- dH [5]: -13 kcal/mol
- Kd [6]: 192 nM

B5: HIF-1α 776–826, chemically synthesized peptide (peptide, UniProt Q16665 776-826, looked up)
peptide: Ac-SDLACRLLGQSMDESGLPQLTSYDCEVNAPIQGSRNLLQGEELLRALDQVN-NH2
modifications: cysteine pairing not given here
notes: source: synthetic peptide (chemical synthesis, see ESI)
- Kd [7]: 52.2 nM
- dH [7]: -22.9 kcal/mol

B6: HIF-1α 786–826, chemically synthesized peptide (peptide, UniProt Q16665 786-826, looked up)
peptide: Ac-SMDESGLPQLTSYDCEVNAPIQGSRNLLQGEELLRALDQVN-NH2
notes: as for B5
- dH [7]: -25.8 kcal/mol

B7: CITIF, HIF-1α-CITED2 hybrid sequence, chemically synthesized peptide (peptide)
chain: Ac-DEEVLMSLVIEMGLDRIKELPQLTSYDCEVNAPIQGSRNLLQGEELLRALDQVN-NH2
- dH [7]: -22.5 kcal/mol
